Usually kcat stands for the maximal rate divided by the concentration of active sites. By KM is commonly meant the concentration of substrate that gives half-maximal velocity.

± gives the standard error. For some of these results: Variants at the floor of the assay were thinned out. Some results are limits rather than exact numbers.

B1: glmS ribozyme (parent)
chain: AUAAAAGCGCCAGAACUACAGAAAUGUAGUUGACGAGGAGGAGGUUUAUCGAAUUUUCGGCGGAUGCCUCCAAA

Holding throughout (details): with glucosamine-6-phosphate
In data set [1] the parent is B1. The data set is described as follows: kcat; higher = faster cleavage; RNA array. A digest of the protocol:
(§1)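 E. coli RNA polymerase transcribed barcoded ribozyme variants in situ on sequenced MiSeq chips, which were tracked via a hybridised Cy3 probe at 37 °C. Tiles were imaged over ~14 h after glucosamine-6-phosphate (40 μM to 10 mM) in HEPES/KCl/Mg(OAc)2 buffer was flowed in. Normalised per-tile medians were fit to one- or two-exponential decays for kobs, and kcat and KM came from weighted Michaelis–Menten fits.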

Data set [2] covers variants of B1. Kind of data set: KM; higher = weaker cofactor use; RNA array. A digest of the protocol: as §1
In data set [3] the parent is B1. The data set is described as follows: self-cleavage kobs at 160 uM GlcN6P; higher = faster cleavage; RNA array. A digest of the protocol: as §1
Data set [4] covers variants of B1. Kind of data set: self-cleavage kobs at 2500 uM GlcN6P; higher = faster cleavage; RNA array. In outline: as §1
The variants in data set [5] derive from B1. Kind of data set: self-cleavage kobs at 10000 uM GlcN6P; higher = faster cleavage; RNA array. In outline:
as §1

Variants of B1 are the subject of data set [6]. The data set is described as follows: self-cleavage kobs at 40 uM GlcN6P; higher = faster cleavage; RNA array. A digest of the protocol:
as §1

Data set [7] covers variants of B1. Kind of data set: self-cleavage kobs at 640 uM GlcN6P; higher = faster cleavage; RNA array. In outline: as §1

Take AUAAAAGCGCCAGAACUACAGAAAUGUAGUUGACGAGGAGUAGGUUUAUCGAAUUCUCGGCGGAUGCCUCCAAA [G41U U56C]: in data set [1], the kcat amounted to 3.03e-05 ± 3.2e-06 s⁻¹. Besides, the KM in data set [2] was found to be 1.56 ± 0.4 mM. In data set [3], the “self-cleavage kobs at 160 uM GlcN6P” value was < 1e-05 s⁻¹.
For AUAAAAGCGCCAGAACUACAGAAAUGUAGUUGACGAGGAGGUGGUUUAUCGAAUUUUCGGCGGAUGCCUCAAAA [A42U C71A], the kcat in data set [1] is 0.000146 ± 7.1e-05 s⁻¹. For the same variant, the “self-cleavage kobs at 2500 uM GlcN6P” value in data set [4] turned out to be 3.16e-05 ± 8.6e-06 s⁻¹. The “self-cleavage kobs at 10000 uM GlcN6P” value in data set [5] came to 8.25e-05 ± 2.2e-05 s⁻¹.
For AUAAAAGCGCCAAAACUACAGAAAUGUAGUUGACGAGGAUGAGGUUUAUCGAAUUUUCGGCGGAUGCCUCCAAA [G13A G40U], the kcat in data set [1] came to 8.11e-05 ± 1e-05 s⁻¹. For the same variant, in data set [2], the KM was found to be 2.81 ± 0.99 mM. Also, the “self-cleavage kobs at 40 uM GlcN6P” value in data set [6] was < 1e-05 s⁻¹. The “self-cleavage kobs at 2500 uM GlcN6P” value in data set [4] was determined as 4.21e-05 ± 8.5e-06 s⁻¹. For the same variant, the “self-cleavage kobs at 10000 uM GlcN6P” value in data set [5] was 6.21e-05 ± 8.8e-06 s⁻¹.
Take AUAAAAGCGCCAGUACUACAGAAAUGUAGUUGACGAGGAUGAGGUUUAUCGAAUUUUCGGCGGAUGCCUCCAAA [A14U G40U]: the kcat in data set [1] came out at 0.00162 ± 0.0004 s⁻¹. Further, the KM in data set [2] is 4.23 ± 1.5 mM. For the same variant, the “self-cleavage kobs at 40 uM GlcN6P” value in data set [6] worked out at 3.43e-05 ± 1.2e-05 s⁻¹. For the same variant, the “self-cleavage kobs at 160 uM GlcN6P” value in data set [3] worked out at 6.75e-05 ± 1.2e-05 s⁻¹. Also, the “self-cleavage kobs at 640 uM GlcN6P” value in data set [7] is 0.000205 ± 3e-05 s⁻¹. Further, the “self-cleavage kobs at 2500 uM GlcN6P” value in data set [4] was 0.000535 ± 7.1e-05 s⁻¹. Also, in data set [5], the “self-cleavage kobs at 10000 uM GlcN6P” value was 0.00123 ± 0.00015 s⁻¹.
Consider AUAAAAGCGCCAGAACUACAGAAAUGUAGUUGACGAGGAGGAGGUUUAUCGAGUUUUCGGCGGAGGCCUCCAAA [A53G U65G], for which the kcat in data set [1] came to 0.00217 ± 0.00093 s⁻¹. The “self-cleavage kobs at 40 uM GlcN6P” value in data set [6] stood at 9.01e-05 ± 2.5e-05 s⁻¹. Further, the “self-cleavage kobs at 160 uM GlcN6P” value in data set [3] turned out to be 0.000202 ± 4e-05 s⁻¹. For the same variant, the “self-cleavage kobs at 640 uM GlcN6P” value in data set [7] is 0.000884 ± 0.00018 s⁻¹. In data set [4], the “self-cleavage kobs at 2500 uM GlcN6P” value was 0.00134 ± 0.00033 s⁻¹.
On to AUAAAAGCGCCAGAACUACAGAAAUGUAGCUGACGAGGAGGAGGUUUAUCGAAUUUUCAGCGGAUGCCUCCAAA [U30C G59A], for which, in data set [1], the kcat was < 1e-05 s⁻¹.
For AUAAAAGCGCCAGACCUACAGAAAUGUAGUUGACGAGGAGGUGGUUUAUCGAAUUUUCGGCGGAUGCCUCCAAA [A15C A42U], the kcat in data set [1] came to 1.58e-05 ± 3.7e-06 s⁻¹. For the same variant, the “self-cleavage kobs at 40 uM GlcN6P” value in data set [6] is < 1e-05 s⁻¹. For the same variant, in data set [3], the “self-cleavage kobs at 160 uM GlcN6P” value is < 1e-05 s⁻¹.
On to AUAAAAGCGCCAGAACUACAGAAAUGUAUUUGACGAGGAGGAGGUUUAUCGAAUUUUCGGCGGGUGCCUCCAAA [G29U A64G], for which the kcat in data set [1] is 0.00507 ± 0.0025 s⁻¹. In data set [6], the “self-cleavage kobs at 40 uM GlcN6P” value is 0.000212 ± 3.2e-05 s⁻¹. The “self-cleavage kobs at 160 uM GlcN6P” value in data set [3] was found to be 0.000495 ± 0.00011 s⁻¹. Further, the “self-cleavage kobs at 640 uM GlcN6P” value in data set [7] turned out to be 0.000939 ± 0.0002 s⁻¹. Also, in data set [4], the “self-cleavage kobs at 2500 uM GlcN6P” value was determined as 0.00221 ± 0.00045 s⁻¹. Moreover, in data set [5], the “self-cleavage kobs at 10000 uM GlcN6P” value was determined as 0.00594 ± 0.00078 s⁻¹.
As to AUAAAAGCGCCAGAACUACAGAAAUGUAGUUGACGAGGAGGAGGUUUAUCGAAUUCUCGGCGGAAGCCUCCAAA [U56C U65A], the kcat in data set [1] was found to be 0.0012 ± 0.00021 s⁻¹. Also, in data set [2], the KM was 7.47 ± 2 mM. In data set [3], the “self-cleavage kobs at 160 uM GlcN6P” value was determined as 2.29e-05 ± 1.1e-05 s⁻¹. The “self-cleavage kobs at 640 uM GlcN6P” value in data set [7] amounted to 0.000115 ± 2.5e-05 s⁻¹. Besides, the “self-cleavage kobs at 2500 uM GlcN6P” value in data set [4] is 0.000269 ± 5.1e-05 s⁻¹. The “self-cleavage kobs at 10000 uM GlcN6P” value in data set [5] came to 0.000702 ± 8.3e-05 s⁻¹.
Take AUAAAAGCGCCAGAACUACAGAAAUGUAGUUGACGAGGCGGAGGUUUAUCGAAUUUUUGGCGGAUGCCUCCAAA [A39C C58U]: in data set [1], the kcat is 1.02e-05 ± 1.6e-06 s⁻¹.
Take AUAAAAGCGCCAGUACUACAGAAAUGUAGUUGACGAGGAGGAGGUUUAUCGAAUUUUCGGCGGAUGCCUGCAAA [A14U C70G]: the kcat in data set [1] worked out at 0.000149 ± 3.1e-05 s⁻¹. Besides, the “self-cleavage kobs at 160 uM GlcN6P” value in data set [3] worked out at 5.56e-05 ± 7.3e-06 s⁻¹. Moreover, the “self-cleavage kobs at 640 uM GlcN6P” value in data set [7] was determined as 8.73e-05 ± 9.3e-06 s⁻¹. For the same variant, in data set [4], the “self-cleavage kobs at 2500 uM GlcN6P” value stood at 0.000147 ± 1.8e-05 s⁻¹.
As for AUAAAAGCGCCAGAACUACAGAAAUGUAGUUUACGAGGAGGAGGUUUAUCGAAUUUUCGGCGGAUGCCUCAAAA [G32U C71A], the kcat in data set [1] was 0.000322 ± 6.6e-05 s⁻¹. Also, the KM in data set [2] turned out to be 4.08 ± 1.9 mM. In addition, the “self-cleavage kobs at 640 uM GlcN6P” value in data set [7] was determined as 3.16e-05 ± 1.1e-05 s⁻¹. Moreover, the “self-cleavage kobs at 2500 uM GlcN6P” value in data set [4] is 0.000161 ± 2.6e-05 s⁻¹. Moreover, the “self-cleavage kobs at 10000 uM GlcN6P” value in data set [5] was found to be 0.000222 ± 2.3e-05 s⁻¹.
Take AUAAAAGCGCCAGAACUACAGAAAUGUAGUUGACGAGGAGGAGGUUUGUCGAAUUUUCGGCGGAUGCCUCCAAA [A48G]: the kcat in data set [1] is 0.000117 ± 1.3e-05 s⁻¹. Further, the KM in data set [2] came to 0.845 ± 0.35 mM. The “self-cleavage kobs at 160 uM GlcN6P” value in data set [3] stood at 1.61e-05 ± 3.1e-06 s⁻¹. In addition, the “self-cleavage kobs at 640 uM GlcN6P” value in data set [7] came out at 4.49e-05 ± 1.5e-06 s⁻¹. The “self-cleavage kobs at 2500 uM GlcN6P” value in data set [4] came to 0.00011 ± 2.2e-06 s⁻¹. In addition, the “self-cleavage kobs at 10000 uM GlcN6P” value in data set [5] turned out to be 0.000103 ± 1.5e-06 s⁻¹.
Consider AUAAAAGCGCCAAAACUACAGAAAUGUAGUUGACGAGGAGGAGGUUUAUCGAAUUUUCGGCGGAUGAUUGCAAA [G13A C67A C68U C70G], for which the kcat in data set [1] is < 1e-05 s⁻¹. Moreover, the “self-cleavage kobs at 40 uM GlcN6P” value in data set [6] was < 1e-05 s⁻¹.
Regarding AUAAAGGCGCCAGAACUACAGAAAUGUAGUUGACGAGGAGGAGGUUUAUCGAAUUUUCGGCGGAUGCCGCCAAA [A6G U69G], the catalytic constant (kcat) in data set [1] amounted to 1.01e-05 ± 1.6e-06 s⁻¹. Further, the “self-cleavage kobs at 40 uM GlcN6P” value in data set [6] was < 1e-05 s⁻¹.
For AUAAAAGCGCCAGAACUACAGAAAUGUAGUUGAAGUGGAGGAGGUUUAUCGAAUUUUCGGCGGAUGCCUCCAAA [C34A A36U], in data set [1], the kcat was < 1e-05 s⁻¹. Also, the “self-cleavage kobs at 40 uM GlcN6P” value in data set [6] is < 1e-05 s⁻¹. Also, in data set [7], the “self-cleavage kobs at 640 uM GlcN6P” value was < 1e-05 s⁻¹. In addition, the “self-cleavage kobs at 2500 uM GlcN6P” value in data set [4] is < 1e-05 s⁻¹. The “self-cleavage kobs at 10000 uM GlcN6P” value in data set [5] was < 1e-05 s⁻¹.
Take AUAAAAGCGCCGGAACUACAGAAAUGUAGUUGACGAAGAGGAGGUUUAUCGAAUUUUCGGCGGAUGCCUCCAAA [A12G G37A]: the kcat in data set [1] came to 0.000113 ± 2.5e-05 s⁻¹. Further, in data set [2], the KM is 6.32 ± 2.8 mM. For the same variant, the “self-cleavage kobs at 2500 uM GlcN6P” value in data set [4] was 3.05e-05 ± 8.5e-06 s⁻¹. Moreover, the “self-cleavage kobs at 10000 uM GlcN6P” value in data set [5] was found to be 6.97e-05 ± 1.1e-05 s⁻¹.
Consider AUAAAAGCGCCAGGACUACAGAAAUGUAGUUGACGAGGAGGAGGUUUAUCGAAUUUUCGGCGGAUGCCUCCAAA [A14G], for which the kcat in data set [1] turned out to be 0.0996 ± 0.0091 s⁻¹. For the same variant, in data set [2], the KM turned out to be 1.72 ± 0.18 mM. The “self-cleavage kobs at 40 uM GlcN6P” value in data set [6] stood at 0.00231 ± 4.7e-05 s⁻¹. Besides, in data set [3], the “self-cleavage kobs at 160 uM GlcN6P” value worked out at 0.00764 ± 0.00054 s⁻¹. For the same variant, the “self-cleavage kobs at 640 uM GlcN6P” value in data set [7] turned out to be 0.0249 ± 0.0012 s⁻¹. The “self-cleavage kobs at 2500 uM GlcN6P” value in data set [4] amounted to 0.0558 ± 0.0042 s⁻¹. Further, the “self-cleavage kobs at 10000 uM GlcN6P” value in data set [5] was found to be 0.0902 ± 0.0048 s⁻¹.
As for AUAAAAGCGCAAGAACUACAGAAAUGUAGUUGACGAGGAGGAGGUUUAUCGAAUGUUCGGCGGAUGCCUCCAAA [C11A U55G], the kcat in data set [1] turned out to be 0.000167 ± 5.3e-05 s⁻¹. Also, the “self-cleavage kobs at 640 uM GlcN6P” value in data set [7] came out at 3.28e-05 ± 1.1e-05 s⁻¹. The “self-cleavage kobs at 2500 uM GlcN6P” value in data set [4] stood at 0.000159 ± 2.4e-05 s⁻¹. Also, the “self-cleavage kobs at 10000 uM GlcN6P” value in data set [5] was 0.000125 ± 2.1e-05 s⁻¹.

Source of the values: the supplement of paper PMC7125110.
